{"source": "patent US7723091B2", "about": "(priority 1999, dated 2010)", "key": {"[1]": {"tested_on": "E. acervulina and Clostridium perfringens", "type": "in vivo, broiler chickens"}, "[2]": {"tested_on": "Eimeria tenella sporozoites", "test": "In vitro invasion of BHK cells by Eimeria tenella sporozoites", "type": "cell-based", "protocol": "Eineria acervulina sporozoites or Eimeria tenella sporozoites and cultured baby hamster kidney (BHK) cells were prepared by published methods. See Augustine, Avian and Poultry Biology Reviews 1:113-122, 2000. For cell pretreatment, cell cultures were overlaid with dilutions of enzymes as described in Table 11, and examined for morphological changes from 5 to 45 min post overlay. After 45 minutes, the monolayer cultures were washed twice, then inoculated with untreated E. acervulina or E. tenella sporozoites. For application during infection, sporozoites were suspended in the appropriate dilution of the enzyme and inoculated immediately into the cell cultures. After 45 minutes incubation, cultures were fixed, stained, and the invasion was quantified.\nObservations were made looking for changes in gross morphology of sporozoites or cells due to enzyme treatment. At the enzyme levels used in these experiments, no morphological change was noted. The sporozoite invasion of the cultured cells was measured after the two methods of enzyme treatment, as well as without enzyme treatment, by histological staining and microscopy procedures. See Augustine, supra."}, "Cryptosporidium": {"tested_on": "Cryptosporidium", "test": "SCID mouse model of Cryptosporidium infection", "conditions": "for Parasite load (SD) Day 21 / Parasite load (SD) Day 28 / Parasite load (SD) Day 31 / Percent Inhibition Day 21 / Percent Inhibition Day 28 / Percent Inhibition Day 31: feces"}, "[3]": {"conditions": "Trial II T4 (Rec), T7 (Wt), infected, 10 U/lb"}, "[4]": {"conditions": "Trial II T9, no infection challenge, 90 U/lb"}, "[5]": {"conditions": "Group A, 90 U/lb in feed, Day 3"}, "[6]": {"conditions": "Group A, 90 U/lb in feed, Day 7"}, "[7]": {"conditions": "Group A, 90 U/lb in feed, Day 10"}, "[8]": {"conditions": "Group A, 90 U/lb in feed, Day 14"}, "[9]": {"conditions": "Group A, 90 U/lb in feed, Day 17"}, "[10]": {"conditions": "Group A, 90 U/lb in feed, Day 21"}, "[11]": {"conditions": "Group A, 90 U/lb in feed, Day 24"}, "[12]": {"conditions": "Group B, 30 U/lb in feed, Day 3"}, "[13]": {"conditions": "Group B, 30 U/lb in feed, Day 7"}, "[14]": {"conditions": "Group B, 30 U/lb in feed, Day 10"}, "[15]": {"conditions": "Group B, 30 U/lb in feed, Day 14"}, "[16]": {"conditions": "Group B, 30 U/lb in feed, Day 17"}, "[17]": {"conditions": "Group B, 30 U/lb in feed, Day 21"}, "[18]": {"conditions": "Group B, 30 U/lb in feed, Day 24"}}, "note": "Read-outs that look alike come from different tables or passages of the source. Marks after values point to notes of the source that are not given here."}
{"substance": "phosphatidylinositol specific phospholipase C [Recombinant PI-PLC]", "values": [{"measurement": "8-21 Day Feed Conversion (Corrected)", "setting": "[1]; Trial II T3, infected, 3 U/lb", "value": 1.702}, {"measurement": "8-21 Day Weight Gain", "setting": "[1]; Trial II T3, infected, 3 U/lb", "value": 323.24}, {"measurement": "Average Intestinal Lesion Score", "setting": "[1]; Trial II T3, infected, 3 U/lb", "value": 1.120}, {"measurement": "8-21 Day Feed Conversion (Corrected)", "setting": "[1]; [3]", "value": 1.732}, {"measurement": "8-21 Day Weight Gain", "setting": "[1]; [3]", "value": 324.78}, {"measurement": "Average Intestinal Lesion Score", "setting": "[1]; [3]", "value": 1.133}, {"measurement": "8-21 Day Feed Conversion (Corrected)", "setting": "[1]; Trial II T5, infected, 30 U/lb", "value": 1.699}, {"measurement": "8-21 Day Weight Gain", "setting": "[1]; Trial II T5, infected, 30 U/lb", "value": 320.64}, {"measurement": "Average Intestinal Lesion Score", "setting": "[1]; Trial II T5, infected, 30 U/lb", "value": 0.842}, {"measurement": "8-21 Day Feed Conversion (Corrected)", "setting": "[1]; Trial II T6, infected, 90 U/lb", "value": 1.739}, {"measurement": "8-21 Day Weight Gain", "setting": "[1]; Trial II T6, infected, 90 U/lb", "value": 328.29}, {"measurement": "Average Intestinal Lesion Score", "setting": "[1]; Trial II T6, infected, 90 U/lb", "value": 0.808}, {"measurement": "8-21 Day Feed Conversion (Corrected)", "setting": "[1]; [4]", "value": 1.650}, {"measurement": "8-21 Day Weight Gain", "setting": "[1]; [4]", "value": 338.8}, {"measurement": "Average Intestinal Lesion Score", "setting": "[1]; [4]", "value": 0.847}, {"measurement": "effect of varying concentrations on intestinal lesion score, feed conversion and weight gain", "setting": "[1]; Trial II, T3-T6 (3-90 U/lb)", "value": "dose-dependent effect on lowering the intestinal lesion score and feed conversion (T3-T6) and increasing weight gain"}, {"measurement": "Invasion counts (mean ± standard error of the mean)", "setting": "[2]; Application of Enzyme During Infection, Test 1, B. cereus PI-PLC 0.0403 U/mL, recombinant 0.261 U/mL, mannanase 5100 U/mL, listed as PI-PLC from Recombinant B. megateriaum", "value": "28 ± 2^b"}, {"measurement": "Invasion counts (mean ± standard error of the mean)", "setting": "[2]; Application of Enzyme During Infection, Test 1, recombinant PI-PLC 0.0261 U/mL", "value": "18 ± 1^c"}, {"measurement": "Invasion counts (mean ± standard error of the mean)", "setting": "[2]; Application of Enzyme During Infection, Test 2, B. cereus PI-PLC 0.0403 U/mL, recombinant 0.261 U/mL, listed as PI-PLC from Recombinant B. megateriaum", "value": "39 ± 4^ab"}, {"measurement": "Invasion counts (mean ± standard error of the mean)", "setting": "[2]; Application of Enzyme During Infection, Test 2, recombinant PI-PLC 0.0261 U/mL", "value": "29 ± 1^b"}, {"measurement": "Invasion counts (mean ± standard error of the mean)", "setting": "[2]; Cell Pretreatment with Enzyme Followed by Wash, Test 1, B. cereus PI-PLC 0.0403 U/mL, recombinant 0.261 U/mL, mannanase 5100 U/mL, listed as PI-PLC from Recombinant B. megateriaum", "value": "30 ± 1^c"}, {"measurement": "Invasion counts (mean ± standard error of the mean)", "setting": "[2]; Cell Pretreatment with Enzyme Followed by Wash, Test 2, B. cereus PI-PLC 0.0403 U/mL, recombinant 0.261 U/mL, mannanase 5100 U/mL, listed as PI-PLC from Recombinant B. megateriaum", "value": "15 ± 0^a"}, {"measurement": "Invasion counts (mean ± standard error of the mean)", "setting": "[2]; Cell Pretreatment with Enzyme Followed by Wash, Test 2, recombinant PI-PLC 0.0261 U/mL", "value": "17 ± 1^a"}, {"measurement": "Feed (g) consumed/mouse/day AVG", "setting": "Cryptosporidium; [5]", "value": 7.56, "unit": "g"}, {"measurement": "Weight (g) AVG", "setting": "Cryptosporidium; [5]", "value": 16.67, "unit": "g"}, {"measurement": "Feed (g) consumed/mouse/day AVG", "setting": "Cryptosporidium; [6]", "value": 8.31, "unit": "g"}, {"measurement": "Weight (g) AVG", "setting": "Cryptosporidium; [6]", "value": 16.95, "unit": "g"}, {"measurement": "Feed (g) consumed/mouse/day AVG", "setting": "Cryptosporidium; [7]", "value": 8.55, "unit": "g"}, {"measurement": "Weight (g) AVG", "setting": "Cryptosporidium; [7]", "value": 17.29, "unit": "g"}, {"measurement": "Feed (g) consumed/mouse/day AVG", "setting": "Cryptosporidium; [8]", "value": 7.78, "unit": "g"}, {"measurement": "Weight (g) AVG", "setting": "Cryptosporidium; [8]", "value": 17.43, "unit": "g"}, {"measurement": "Feed (g) consumed/mouse/day AVG", "setting": "Cryptosporidium; [9]", "value": 8.52, "unit": "g"}, {"measurement": "Weight (g) AVG", "setting": "Cryptosporidium; [9]", "value": 17.64, "unit": "g"}, {"measurement": "Feed (g) consumed/mouse/day AVG", "setting": "Cryptosporidium; [10]", "value": 7.89, "unit": "g"}, {"measurement": "Weight (g) AVG", "setting": "Cryptosporidium; [10]", "value": 18.25, "unit": "g"}, {"measurement": "Feed (g) consumed/mouse/day AVG", "setting": "Cryptosporidium; [11]", "value": 9.79, "unit": "g"}, {"measurement": "Weight (g) AVG", "setting": "Cryptosporidium; [11]", "value": 18.2, "unit": "g"}, {"measurement": "Feed (g) consumed/mouse/day AVG", "setting": "Cryptosporidium; [12]", "value": 6.13, "unit": "g"}, {"measurement": "Weight (g) AVG", "setting": "Cryptosporidium; [12]", "value": 17.055, "unit": "g"}, {"measurement": "Feed (g) consumed/mouse/day AVG", "setting": "Cryptosporidium; [13]", "value": 8.51, "unit": "g"}, {"measurement": "Weight (g) AVG", "setting": "Cryptosporidium; [13]", "value": 16.91, "unit": "g"}, {"measurement": "Feed (g) consumed/mouse/day AVG", "setting": "Cryptosporidium; [14]", "value": 7.93, "unit": "g"}, {"measurement": "Weight (g) AVG", "setting": "Cryptosporidium; [14]", "value": 17.08, "unit": "g"}, {"measurement": "Feed (g) consumed/mouse/day AVG", "setting": "Cryptosporidium; [15]", "value": 8.06, "unit": "g"}, {"measurement": "Weight (g) AVG", "setting": "Cryptosporidium; [15]", "value": 17.62, "unit": "g"}, {"measurement": "Feed (g) consumed/mouse/day AVG", "setting": "Cryptosporidium; [16]", "value": 8.53, "unit": "g"}, {"measurement": "Weight (g) AVG", "setting": "Cryptosporidium; [16]", "value": 17.84, "unit": "g"}, {"measurement": "Feed (g) consumed/mouse/day AVG", "setting": "Cryptosporidium; [17]", "value": 8.22, "unit": "g"}, {"measurement": "Weight (g) AVG", "setting": "Cryptosporidium; [17]", "value": 18.62, "unit": "g"}, {"measurement": "Feed (g) consumed/mouse/day AVG", "setting": "Cryptosporidium; [18]", "value": 8.3, "unit": "g"}, {"measurement": "Weight (g) AVG", "setting": "Cryptosporidium; [18]", "value": 18.63, "unit": "g"}, {"measurement": "reduction in parasite load in the treated groups", "setting": "Cryptosporidium; feces at 3, 4 and 4.5 weeks post-infection, 30 or 90 U/lb", "value": "34-54%"}, {"measurement": "Parasite load (SD) Day 21", "setting": "Cryptosporidium; 30 U/lb in feed", "value": "16.2 (4.7) oocysts/100 μl"}, {"measurement": "Parasite load (SD) Day 28", "setting": "Cryptosporidium; 30 U/lb in feed", "value": "23.4 (11)* oocysts/100 μl"}, {"measurement": "Parasite load (SD) Day 31", "setting": "Cryptosporidium; 30 U/lb in feed", "value": "74.3 (89.7)^+ oocysts/100 μl"}, {"measurement": "Percent Inhibition Day 21", "setting": "Cryptosporidium; 30 U/lb in feed", "value": 52.0, "unit": "%"}, {"measurement": "Percent Inhibition Day 28", "setting": "Cryptosporidium; 30 U/lb in feed", "value": 54.6, "unit": "%"}, {"measurement": "Percent Inhibition Day 31", "setting": "Cryptosporidium; 30 U/lb in feed", "value": 40.0, "unit": "%"}, {"measurement": "Parasite load (SD) Day 21", "setting": "Cryptosporidium; 90 U/lb in feed", "value": "22.7 (11.4) oocysts/100 μl"}, {"measurement": "Parasite load (SD) Day 28", "setting": "Cryptosporidium; 90 U/lb in feed", "value": "26.3 (14)* oocysts/100 μl"}, {"measurement": "Parasite load (SD) Day 31", "setting": "Cryptosporidium; 90 U/lb in feed", "value": "87.5 (52.9) oocysts/100 μl"}, {"measurement": "Percent Inhibition Day 21", "setting": "Cryptosporidium; 90 U/lb in feed", "value": 44.0, "unit": "%"}, {"measurement": "Percent Inhibition Day 28", "setting": "Cryptosporidium; 90 U/lb in feed", "value": 48.9, "unit": "%"}, {"measurement": "Percent Inhibition Day 31", "setting": "Cryptosporidium; 90 U/lb in feed", "value": 34.0, "unit": "%"}]}
